In US20230059836A1 (NANJING LEGEND BIOTECH, published 2023):

Columns and labels:
[1] = target: human PD-1 expressed on CHO cells (human, UniProt Q15116 25-288); experiment: cell-based or functional assay
[2] = target: CTLA-4-Fc (GenScript, Z03373-50) (UniProt P16410 36-161); experiment: cell-based or functional assay
Chain of CTLA-4-Fc (GenScript, Z03373-50) (P16410 36-161 limits assumed, one chain of several): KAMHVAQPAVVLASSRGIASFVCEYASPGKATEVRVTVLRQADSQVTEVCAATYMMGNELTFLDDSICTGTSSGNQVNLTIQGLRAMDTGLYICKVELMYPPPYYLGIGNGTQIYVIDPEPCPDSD

Chain of human PD-1 expressed on CHO cells (Q15116 25-288): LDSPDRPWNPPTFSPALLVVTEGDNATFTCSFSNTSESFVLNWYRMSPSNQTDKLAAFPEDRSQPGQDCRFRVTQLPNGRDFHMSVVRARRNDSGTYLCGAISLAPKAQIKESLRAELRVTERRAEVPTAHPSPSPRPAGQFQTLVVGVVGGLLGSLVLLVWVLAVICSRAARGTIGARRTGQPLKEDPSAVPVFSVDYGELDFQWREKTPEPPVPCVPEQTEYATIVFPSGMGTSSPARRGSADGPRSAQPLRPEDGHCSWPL

EC50 (nM), NFAT luciferase, PD-1/NFAT Reporter-Jurkat cells with CHO-K1 expressing human PD-L1 and TCR activator [1]	EC50 (nM), IL-2 secretion, CD4+ T cells with CHO-K1/human CD80 and CTLA-4-Fc [2]	Binder
8.9 nM	8.4 nM	BCP-78 (bispecific antibody) chain 1: EVQLVESGGGVVQPGRSLRLSCAASGRTITTITMGWFRQAPGKGREFVASHSWTDNNPYYADSVKGRFTISRDNAKNTLYLQMNSLRPEDTAVYYCAATARRSFVGRQWYTEARQYDYWGQGTLVTVSSEPKSSDKTHTSPPSPQVQLVESGGGVVQPGRSLRLDCKASGITFSNSGMHWVRQAPGKGLEWVAVIWYDGSKRYYADSVKGRFTISRDNSKNTLFLQMNSLRAEDTAVYYCATNDDYWGQGTLVTVSSASTKGPSVFPLAPCSRSTSESTAALGCLVKDYFPEPVTVSWNSGALTSGVHTFPAVLQSSGLYSLSSVVTVPSSSLGTKTYTCNVDHKPSNTKVDKRVESKYGPPCPPCPAPEFLGGPSVFLFPPKPKDTLMISRTPEVTCVVVDVSQEDPEVQFNWYVDGVEVHNAKTKPREEQFNSTYRVVSVLTVLHQDWLNGKEYKCKVSNKGLPSSIEKTISKAKGQPREPQVYTLPPSQEEMTKNQVSLTCLVKGFYPSDIAVEWESNGQPENNYKTTPPVLDSDGSFFLYSRLVDKSRWQEGNVFSCSVMHEALHNHYTQKSLSLSLGK chain 2: not shown
5.5 nM	12.1 nM	BCP-75 (bispecific antibody) chain 1: not shown chain 2: EIVLTQSPATLSLSPGERATLSCRASKGVSTSGYSYLHWYQQKPGQAPRLLIYLASYLESGVPARFSGSGSGTDFTLTISSLEPEDFAVYYCQHSRDLPLTFGGGTKVEIKRTVAAPSVFIFPPSDEQLKSGTASVVCLLNNFYPREAKVQWKVDNALQSGNSQESVTEQDSKDSTYSLSSTLTLSKADYEKHKVYACEVTHQGLSSPVTKSFNRGEC

Second part, the binder before the results:

Binder	EC50 (nM), NFAT luciferase, PD-1/NFAT Reporter-Jurkat cells with CHO-K1 expressing human PD-L1 and TCR activator [1]	EC50 (nM), IL-2 secretion, CD4+ T cells with CHO-K1/human CD80 and CTLA-4-Fc [2]
BCP-73 (bispecific antibody) chain 1: not shown chain 2: EIVLTQSPATLSLSPGERATLSCRASKGVSTSGYSYLHWYQQKPGQAPRLLIYLASYLESGVPARFSGSGSGTDFTLTISSLEPEDFAVYYCQHSRDLPLTFGGGTKVEIKRTVAAPSVFIFPPSDEQLKSGTASVVCLLNNFYPREAKVQWKVDNALQSGNSQESVTEQDSKDSTYSLSSTLTLSKADYEKHKVYACEVTHQGLSSPVTKSFNRGEC	1.6 nM	12.1 nM
BCP-74 (bispecific antibody) chain 1: not shown chain 2: EIVLTQSPATLSLSPGERATLSCRASKGVSTSGYSYLHWYQQKPGQAPRLLIYLASYLESGVPARFSGSGSGTDFTLTISSLEPEDFAVYYCQHSRDLPLTFGGGTKVEIKRTVAAPSVFIFPPSDEQLKSGTASVVCLLNNFYPREAKVQWKVDNALQSGNSQESVTEQDSKDSTYSLSSTLTLSKADYEKHKVYACEVTHQGLSSPVTKSFNRGEC	4.3 nM	14.3 nM
